± gives the standard error. Variants at the floor of the assay were thinned out.
B1: glmS ribozyme (parent)
chain: AUAAAAGCGCCAGAACUACAGAAAUGUAGUUGACGAGGAGGAGGUUUAUCGAAUUUUCGGCGGAUGCCUCCAAA

Legend:
Conditions in all cases: with glucosamine-6-phosphate
glucosamine-6-phosphate [1] = variants of: B1; assay: self-cleavage kobs at 40 uM GlcN6P; higher = faster cleavage; RNA array
Method in brief: (§1)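 Glucosamine-6-phosphate in HEPES/KCl/Mg(OAc)2 buffer, at 40 μM to 10 mM, was flowed over barcoded ribozyme variants transcribed in situ by E. coli RNA polymerase on sequenced MiSeq chips. Tracking was through a hybridised Cy3 probe at 37 °C. kobs, kcat and KM came from exponential decay fits and weighted Michaelis–Menten fits of normalised per-tile medians.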

glucosamine-6-phosphate [2] = variants of: B1; assay: self-cleavage kobs at 10000 uM GlcN6P; higher = faster cleavage; RNA array
Method in brief: as §1

glucosamine-6-phosphate [3] = variants of: B1; assay: self-cleavage kobs at 640 uM GlcN6P; higher = faster cleavage; RNA array
Method in brief: as §1

glucosamine-6-phosphate [4] = variants of: B1; assay: self-cleavage kobs at 2500 uM GlcN6P; higher = faster cleavage; RNA array
Method in brief: as §1

glucosamine-6-phosphate [5] = variants of: B1; assay: self-cleavage kobs at 160 uM GlcN6P; higher = faster cleavage; RNA array
Method in brief: as §1

| Variant | self-cleavage kobs at 40 uM GlcN6P (glucosamine-6-phosphate [1]) [s⁻¹] | self-cleavage kobs at 10000 uM GlcN6P (glucosamine-6-phosphate [2]) [s⁻¹] | self-cleavage kobs at 640 uM GlcN6P (glucosamine-6-phosphate [3]) [s⁻¹] | self-cleavage kobs at 2500 uM GlcN6P (glucosamine-6-phosphate [4]) [s⁻¹] | self-cleavage kobs at 160 uM GlcN6P (glucosamine-6-phosphate [5]) [s⁻¹] |
| --- | --- | --- | --- | --- | --- |
| AUAAAAGCGCCAGAACUACAGAAAUGUAGUUGACGAGGAGGAGGUUUAUGGAAUUUUAGGCGGAUGCGUCUAAA [C50G C58A C68G C71U] | 9.15e-05 ± 1.8e-05 | 0.00024 ± 5.2e-05 |  |  |  |
| AUAAAAGCGCCAGAACUACAGAAAUGUAGUUGACGAGGAGGAGGUUUUUCGAAUUUUCGGCGGAUGCAUCCAAA [A48U C68A] | < 1e-05 |  | < 1e-05 |  |  |
| AUAAAAGCGCCAGAACUACAGAAAUGUAGUUGACGAGGAGGAGGUUUACCGAAUUUUCGGCCGAUGCCUCCAAA [U49C G62C] | < 1e-05 |  | < 1e-05 | < 1e-05 |  |
| AUAAAAGCGCCAGAACUACAGAAAUGUAGUUGACGAGGAGGAGGUUUACCGUAUUUUCGGCGGAUGCCUCCAAA [U49C A52U] | < 1e-05 | < 1e-05 | < 1e-05 | < 1e-05 | < 1e-05 |
| AUAAAAGCGCCAGAACUACAGAAAUGUAGUUGACGAGGAGGAGGUUUAACGAAUUUGCGGCGGAUGCCUCCAAA [U49A U57G] | < 1e-05 |  | < 1e-05 |  |  |
| AUAAAAGCGCCAGAACUACAGAAAUGUAGUUGACGAGGAGGAGGUUUUUCGAAUUUUCAGCGGAUUCCUCCAAA [A48U G59A G66U] | < 1e-05 | < 1e-05 | < 1e-05 |  | < 1e-05 |
| AUAAAAGCGCCAGAACUACAGAAAUGUAGUUGACGAGGAGGAGGUUUAACAAAUUUAGGGCGGAUGCCUCCAAA [U49A G51A U57A C58G] | < 1e-05 | < 1e-05 |  |  |  |
| AUAAAAGCGCCAGAACUACAGAAAUGUAGUUGACGAGGAGGAGGUUUAUGGAAUUUUAGGCGGAUGCCUUCAAA [C50G C58A C70U] | 9.84e-05 ± 1.6e-05 | 0.000117 ± 2.1e-05 |  | 0.000176 ± 4e-05 |  |
| AUAAAAGCGCCAGAACUACAGAAAUGUAGUUGACGAGGAGGAGGUUUUUCGAAUUUUCGGCUGAUGCCUCCAAA [A48U G62U] | < 1e-05 | < 1e-05 | < 1e-05 | < 1e-05 | < 1e-05 |
| AUAAAAGCGCCAGAACUACAGAAAUGUAGUUGACGAGGAGGAGGUUUAUGGCAUUUUCGGCGGAUGCCACCAAA [C50G A52C U69A] | 8.7e-05 ± 2.7e-05 | 4.8e-05 ± 1.6e-05 |  |  |  |
| AUAAAAGCGCCAGAACUACAGAAAUGUAGUUGACGAGGAGGAGGUUUUUCGAAUUUUCGGAGGAUGUCUCCAAA [A48U C61A C67U] | < 1e-05 | < 1e-05 |  | < 1e-05 |  |
| AUAAAAGCGCCAGAACUACAGAAAUGUAGUUGACGAGGAGGAGGUUUAGCGAAUUUACGGCGGAUGCCUCCAAA [U49G U57A] | < 1e-05 |  | < 1e-05 |  |  |
| AUAAAAGCGCCAGAACUACAGAAAUGUAGUUGACGAGGAGGAGGUUUAUAGAAUUUUCGGCGGGUGCCUCUAAA [C50A A64G C71U] | < 1e-05 |  |  |  |  |
| AUAAAAGCGCCAGAACUACAGAAAUGUAGUUGACGAGGAGGAGGUUUAUGGAAUUUUGGGCGGAUUCAUCCAAA [C50G C58G G66U C68A] | 6.12e-05 ± 1.5e-05 | 0.00013 ± 2e-05 | 0.000228 ± 8e-05 | 0.000368 ± 6.5e-05 | 0.000177 ± 4e-05 |

Source: the supplement of paper PMC7125110
